Results from article PMC10465699, “Interaction patterns of methoprene-tolerant and germ cell-expressed Drosophila JH receptors suggest significant differences in their functioning” (Frontiers in Molecular Biosciences, 2023).
Each block holds one binder with its values, some of them ahead of it.

B3: Fushi tarazu factor-1 ligand-binding domain (Ftz-F1 LBD, 786-1027 aa) (domain or fragment, D. melanogaster, UniProt P33244 786-1027, looked up)
chain: ALIEPLRVSPMIREFVQSIDDREWQTQLFALLQKQTYNQVEVDLFELMCKVLDQNLFSQVDWARNTVFFKDLKVDDQMKLLQHSWSDMLVLDHLHHRIHNGLPDETQLNNGQVFNLMSLGLLGVPQLGDYFNELQNKLQDLKFDMGDYVCMKFLILLNPSVRGIVNRKTVSEGHDNVQAALLDYTLTCYPSVNDKFRGLVNILPEIHAMAVRGEDHLYTKHCAGSAPTQTLLMEMLHAKRKG
notes: 15N- or 13C,15N-labelled where it was the observed protein in NMR, unlabelled otherwise; also called LBD Ftz-F1; source: E. coli BL21(DE3), purified (Ni-NTA, thrombin digestion, SEC); not shown: His6, N-terminal, cleaved

What was measured:
Settings in all cases: both partners purified
[1] = target: B3; test: NMR titration; 15N-HSQC of 150 uM 15N-MetC with unlabelled Ftz-F1 LBD at 0, 40, 82, 122, 199, 301 and 500 uM (cross-mixing); 20 mM Bis-Tris pH 6.5, 150 mM NaCl, 5 mM bME; 18 C
[2] = target: B3; test: ITC; 1.06 mM Met^PEP titrated into 0.035 mM Ftz-F1 LBD; 25 C; 20 mM HEPES pH 6.8, 150 mM NaCl, 1 mM TCEP; duplicate, global fit to A + B = AB
[3] = target: T1, Germ cell-expressed C-terminus (GceC, 661-959 aa) (D. melanogaster, UniProt Q9VXW7 661-959); test: NMR titration; 15N-HSQC of 15N Ftz-F1 LBD without and with an equimolar quantity of unlabelled MetC or GceC; 20 mM sodium phosphate pH 6.8, 50 mM NaCl, 1 mM TCEP, 0.5 mM EDTA; 29 C
T1 construct: Germ cell-expressed (Gce) protein, D. melanogaster, UniProt Q9VXW7, residues 661-959 (C-terminal fragment); No step that removes the His tag is described; also called Gce C-terminus
T1 sequence (looked up): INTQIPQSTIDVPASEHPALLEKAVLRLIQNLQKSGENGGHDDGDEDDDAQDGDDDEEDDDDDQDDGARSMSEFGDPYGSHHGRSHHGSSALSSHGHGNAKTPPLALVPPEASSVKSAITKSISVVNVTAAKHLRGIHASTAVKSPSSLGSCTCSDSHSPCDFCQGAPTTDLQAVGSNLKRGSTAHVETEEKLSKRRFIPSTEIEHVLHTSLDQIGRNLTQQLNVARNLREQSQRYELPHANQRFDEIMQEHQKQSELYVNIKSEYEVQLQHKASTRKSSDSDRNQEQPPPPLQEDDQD

- binding result [1]: binds
B1: Methoprene-tolerant C-terminus (MetC, 509-716 aa) (domain or fragment, D. melanogaster, UniProt Q9VYW2 509-716, looked up)
chain: AGRQKVQEMKEKFSTIIKAEMPTQSSSPDLPASQAPQQLERIVLYLIENLQKSVDSAETVGGQGMESLMDDGYSSPANTLTLEELAPSPTPALALVPPAPSSVKSSISKSVSVVNVTAARKFQQEHQKQRERDREQLKERTNSTQGVIRQLSSCLSEAETASCILSPASSLSASEAPDTPDPHSNTSPPPSLHTRPSVLHRTLTSTLR
notes: Methoprene-tolerant (Met) protein, D. melanogaster, UniProt Q9VYW2, residues 509-716 (C-terminal fragment); 15N- or 13C,15N-labelled where it was the observed protein in NMR, unlabelled where it was added to 15N Ftz-F1 LBD; also called Met C-terminus; source: E. coli BL21(DE3), purified (Ni-NTA, on-column SUMO hydrolase digestion, SEC); not shown: His6, N-terminal, cleaved; SUMO, N-terminal, …

- Kd [2]: 9.9 µM
- dH [2]: -1.1 kcal/mol
- stoichiometry N [2]: 1
B2: Met^PEP, 19-residue peptide of the novel NR-box of MetC (peptide)
peptide: LERIVLYLIENLQKSVDSA
notes: 19-residue peptide representing the novel NR-box in the C-terminus of Met, D. melanogaster, UniProt Q9VYW2; also called MetC^PEP; source: synthetic peptide (PSL GmbH, Heidelberg)

Binder: B3
- binding result [3]: binds
